# Patent US20140072613A1, “Compositions and Methods for Treating Cutaneous Scarring” (priority 2012, published 2014)
# Experiments:
# Test in all cases: cell-based or functional assay
# BrSK1(h) (human) = biological target: T1, BrSK1(h) (human) (UniProt Q8TDC3)
# T1 sequence (looked up): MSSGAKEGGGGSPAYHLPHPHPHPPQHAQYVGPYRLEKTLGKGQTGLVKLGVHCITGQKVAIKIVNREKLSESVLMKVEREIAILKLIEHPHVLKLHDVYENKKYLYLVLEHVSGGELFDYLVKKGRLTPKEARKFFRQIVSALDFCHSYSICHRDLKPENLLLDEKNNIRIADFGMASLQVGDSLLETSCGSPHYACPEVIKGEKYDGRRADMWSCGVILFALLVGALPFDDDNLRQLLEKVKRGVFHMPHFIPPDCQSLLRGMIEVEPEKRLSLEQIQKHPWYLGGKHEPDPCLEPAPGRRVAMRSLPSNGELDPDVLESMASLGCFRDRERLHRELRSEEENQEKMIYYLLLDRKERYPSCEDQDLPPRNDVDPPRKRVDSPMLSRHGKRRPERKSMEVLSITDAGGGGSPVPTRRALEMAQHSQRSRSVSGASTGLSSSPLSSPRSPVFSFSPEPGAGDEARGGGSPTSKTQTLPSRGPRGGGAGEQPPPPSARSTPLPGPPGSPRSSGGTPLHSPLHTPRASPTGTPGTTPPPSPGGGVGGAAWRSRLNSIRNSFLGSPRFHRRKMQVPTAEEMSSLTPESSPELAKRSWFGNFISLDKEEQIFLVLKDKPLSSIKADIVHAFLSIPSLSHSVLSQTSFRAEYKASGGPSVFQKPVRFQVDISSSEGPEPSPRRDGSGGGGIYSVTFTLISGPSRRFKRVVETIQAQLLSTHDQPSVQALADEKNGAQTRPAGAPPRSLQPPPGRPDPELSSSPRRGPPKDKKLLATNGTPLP
# [1] = biological target: CDK9/cyclin T1(h) (human) (UniProt P50750)
# DAPK2(h) (human) = DAPK2(h) (human) (UniProt Q9UIK4)
# Flt3(D835Y)(h) (human) = biological target: T2, Flt3(D835Y)(h) (human) (UniProt P36888)
# T2 sequence (looked up): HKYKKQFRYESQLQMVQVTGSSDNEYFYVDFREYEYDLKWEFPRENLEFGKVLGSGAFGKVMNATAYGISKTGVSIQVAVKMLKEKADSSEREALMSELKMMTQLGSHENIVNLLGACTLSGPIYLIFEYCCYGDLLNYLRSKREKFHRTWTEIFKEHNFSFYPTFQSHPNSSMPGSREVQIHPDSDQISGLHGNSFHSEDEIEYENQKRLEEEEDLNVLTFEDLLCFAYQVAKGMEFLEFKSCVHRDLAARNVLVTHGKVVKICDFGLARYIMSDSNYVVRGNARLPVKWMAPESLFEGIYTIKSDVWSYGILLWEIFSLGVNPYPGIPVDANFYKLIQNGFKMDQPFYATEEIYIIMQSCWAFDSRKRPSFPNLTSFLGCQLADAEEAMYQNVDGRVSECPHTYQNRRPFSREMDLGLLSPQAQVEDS
# Fyn(h) (human) = Fyn(h) (human) (UniProt P06241)
# HIPK1(h) (human) = HIPK1(h) (human) (UniProt Q86Z02)
# Hck(h) (human) = Hck(h) (human) (UniProt P08631)
# Lck(h) activated (human) = Lck(h) activated (human) (UniProt P06239)
# Lyn(h) (human) = Lyn(h) (human) (UniProt P07948)
# MELK(h) (human) = MELK(h) (human) (UniProt Q14680)
# MRCKβ(h) (human) = MRCKβ(h) (human) (UniProt Q9Y5S2)
# PKCµ(h) (human) = biological target: T3, PKCµ(h) (human) (UniProt Q15139)
# T3 sequence (looked up): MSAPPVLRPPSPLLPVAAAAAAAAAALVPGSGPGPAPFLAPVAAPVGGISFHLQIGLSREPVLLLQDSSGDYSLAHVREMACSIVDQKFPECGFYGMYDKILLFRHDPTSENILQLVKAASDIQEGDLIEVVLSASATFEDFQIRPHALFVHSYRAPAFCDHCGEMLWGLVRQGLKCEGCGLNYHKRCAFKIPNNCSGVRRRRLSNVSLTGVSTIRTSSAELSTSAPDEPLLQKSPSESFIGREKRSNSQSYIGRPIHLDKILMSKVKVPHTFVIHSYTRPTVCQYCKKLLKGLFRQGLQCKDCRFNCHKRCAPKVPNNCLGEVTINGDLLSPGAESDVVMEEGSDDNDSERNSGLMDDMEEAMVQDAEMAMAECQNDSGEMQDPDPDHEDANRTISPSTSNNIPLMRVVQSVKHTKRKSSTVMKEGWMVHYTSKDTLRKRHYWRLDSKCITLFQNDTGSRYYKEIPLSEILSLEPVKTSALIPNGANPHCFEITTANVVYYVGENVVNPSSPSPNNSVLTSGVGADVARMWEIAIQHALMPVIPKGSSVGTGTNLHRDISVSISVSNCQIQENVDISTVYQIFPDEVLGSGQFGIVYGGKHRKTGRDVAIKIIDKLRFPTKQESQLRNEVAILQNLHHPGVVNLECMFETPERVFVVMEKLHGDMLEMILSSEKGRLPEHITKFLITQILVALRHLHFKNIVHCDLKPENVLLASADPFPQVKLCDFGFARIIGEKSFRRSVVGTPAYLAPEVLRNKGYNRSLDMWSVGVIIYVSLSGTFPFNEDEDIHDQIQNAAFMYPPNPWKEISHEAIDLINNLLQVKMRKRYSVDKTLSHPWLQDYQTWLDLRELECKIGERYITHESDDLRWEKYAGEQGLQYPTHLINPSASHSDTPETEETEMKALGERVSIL
# PKGδ(h) (human) = biological target: PKGδ(h) (human)
# SAPK4(h) (human) = biological target: T4, SAPK4(h) (human) (UniProt O15264)
# T4 sequence (looked up): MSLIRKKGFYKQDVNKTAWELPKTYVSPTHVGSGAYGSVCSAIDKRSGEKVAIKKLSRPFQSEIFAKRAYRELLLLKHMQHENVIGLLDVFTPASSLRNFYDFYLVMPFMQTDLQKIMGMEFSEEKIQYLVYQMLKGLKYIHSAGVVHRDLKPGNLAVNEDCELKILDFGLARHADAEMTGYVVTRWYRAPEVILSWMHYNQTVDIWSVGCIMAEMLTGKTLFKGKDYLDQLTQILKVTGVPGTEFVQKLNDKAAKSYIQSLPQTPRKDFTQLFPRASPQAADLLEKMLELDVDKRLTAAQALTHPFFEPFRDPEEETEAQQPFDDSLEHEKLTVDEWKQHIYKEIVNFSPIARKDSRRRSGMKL
# WNK2(h) (human) = WNK2(h) (human) (UniProt Q9Y3S1)
# Chain of WNK2(h) (human) (Q9Y3S1 166-489 limits assumed): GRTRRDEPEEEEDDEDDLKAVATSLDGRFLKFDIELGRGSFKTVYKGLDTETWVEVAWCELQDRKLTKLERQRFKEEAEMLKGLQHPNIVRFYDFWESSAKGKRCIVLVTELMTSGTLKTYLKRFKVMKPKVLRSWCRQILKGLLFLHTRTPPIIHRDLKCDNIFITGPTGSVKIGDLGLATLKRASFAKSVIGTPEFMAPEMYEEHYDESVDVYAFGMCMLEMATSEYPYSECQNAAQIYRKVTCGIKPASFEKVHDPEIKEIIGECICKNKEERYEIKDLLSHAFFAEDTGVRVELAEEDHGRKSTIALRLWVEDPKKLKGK
# Chain of HIPK1(h) (human) (Q86Z02 158-555 limits assumed): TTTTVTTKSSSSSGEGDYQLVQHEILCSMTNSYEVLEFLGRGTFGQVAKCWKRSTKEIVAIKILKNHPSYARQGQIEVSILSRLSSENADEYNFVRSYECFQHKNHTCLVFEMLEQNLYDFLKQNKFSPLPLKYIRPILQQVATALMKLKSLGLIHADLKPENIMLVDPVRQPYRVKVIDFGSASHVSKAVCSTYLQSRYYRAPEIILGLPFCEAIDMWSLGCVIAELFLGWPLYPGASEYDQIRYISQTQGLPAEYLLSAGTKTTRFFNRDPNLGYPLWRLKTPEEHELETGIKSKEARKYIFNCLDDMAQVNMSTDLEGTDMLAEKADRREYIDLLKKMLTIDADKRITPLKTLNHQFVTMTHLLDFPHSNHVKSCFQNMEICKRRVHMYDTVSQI
# Chain of MRCKβ(h) (human) (Q9Y5S2 1-473 limits assumed): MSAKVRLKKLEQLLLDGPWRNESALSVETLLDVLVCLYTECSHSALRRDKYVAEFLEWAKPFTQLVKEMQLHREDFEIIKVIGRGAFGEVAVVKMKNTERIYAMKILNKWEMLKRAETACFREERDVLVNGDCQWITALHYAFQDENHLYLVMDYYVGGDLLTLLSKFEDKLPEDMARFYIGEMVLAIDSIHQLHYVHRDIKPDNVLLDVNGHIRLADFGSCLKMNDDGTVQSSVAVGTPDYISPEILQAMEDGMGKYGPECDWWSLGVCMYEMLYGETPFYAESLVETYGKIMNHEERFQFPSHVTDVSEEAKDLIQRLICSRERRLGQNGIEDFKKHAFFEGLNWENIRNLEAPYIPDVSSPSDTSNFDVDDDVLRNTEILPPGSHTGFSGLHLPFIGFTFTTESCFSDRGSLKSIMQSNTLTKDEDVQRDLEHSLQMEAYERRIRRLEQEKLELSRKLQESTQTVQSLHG
# Chain of CDK9/cyclin T1(h) (human) (P50750 whole entry, chain 1 of 2): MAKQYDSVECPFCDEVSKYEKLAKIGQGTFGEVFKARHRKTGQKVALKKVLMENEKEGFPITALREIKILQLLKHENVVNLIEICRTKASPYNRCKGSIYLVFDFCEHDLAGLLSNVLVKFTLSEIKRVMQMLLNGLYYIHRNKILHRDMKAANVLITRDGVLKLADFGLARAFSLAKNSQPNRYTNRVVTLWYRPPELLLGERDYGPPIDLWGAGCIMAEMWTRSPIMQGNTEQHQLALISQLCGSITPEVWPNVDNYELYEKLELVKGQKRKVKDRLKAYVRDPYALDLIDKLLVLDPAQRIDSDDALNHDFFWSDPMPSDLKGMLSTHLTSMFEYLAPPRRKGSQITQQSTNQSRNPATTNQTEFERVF
# Chain of CDK9/cyclin T1(h) (human) (O60563 whole entry, chain 2 of 2, further chain): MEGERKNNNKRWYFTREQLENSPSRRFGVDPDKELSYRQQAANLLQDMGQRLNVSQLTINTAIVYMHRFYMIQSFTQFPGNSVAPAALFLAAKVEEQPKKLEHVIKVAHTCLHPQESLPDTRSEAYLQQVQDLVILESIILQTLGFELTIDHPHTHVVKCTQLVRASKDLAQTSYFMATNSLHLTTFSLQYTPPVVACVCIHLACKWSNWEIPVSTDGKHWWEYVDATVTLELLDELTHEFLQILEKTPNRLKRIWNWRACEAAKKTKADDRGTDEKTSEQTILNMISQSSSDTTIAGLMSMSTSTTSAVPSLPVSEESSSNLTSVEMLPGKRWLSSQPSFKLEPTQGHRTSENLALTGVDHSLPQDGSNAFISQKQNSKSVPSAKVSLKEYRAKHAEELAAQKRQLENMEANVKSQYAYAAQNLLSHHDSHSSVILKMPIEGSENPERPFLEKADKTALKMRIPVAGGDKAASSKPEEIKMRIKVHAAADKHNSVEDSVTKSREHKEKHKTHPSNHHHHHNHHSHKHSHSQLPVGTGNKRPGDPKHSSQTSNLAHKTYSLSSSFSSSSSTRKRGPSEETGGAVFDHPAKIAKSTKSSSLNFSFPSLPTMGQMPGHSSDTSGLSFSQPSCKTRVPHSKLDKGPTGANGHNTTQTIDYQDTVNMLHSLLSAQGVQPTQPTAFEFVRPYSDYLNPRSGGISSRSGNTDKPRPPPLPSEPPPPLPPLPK
# Chain of Hck(h) (human) (P08631 251-518 limits assumed): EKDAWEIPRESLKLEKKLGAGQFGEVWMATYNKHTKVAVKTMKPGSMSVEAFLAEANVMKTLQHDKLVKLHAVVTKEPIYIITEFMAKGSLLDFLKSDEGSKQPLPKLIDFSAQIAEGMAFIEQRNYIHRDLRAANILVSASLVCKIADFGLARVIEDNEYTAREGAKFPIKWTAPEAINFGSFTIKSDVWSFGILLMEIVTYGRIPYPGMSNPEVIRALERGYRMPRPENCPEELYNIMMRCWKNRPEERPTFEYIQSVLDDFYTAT
# Chain of Fyn(h) (human) (P06241 whole entry): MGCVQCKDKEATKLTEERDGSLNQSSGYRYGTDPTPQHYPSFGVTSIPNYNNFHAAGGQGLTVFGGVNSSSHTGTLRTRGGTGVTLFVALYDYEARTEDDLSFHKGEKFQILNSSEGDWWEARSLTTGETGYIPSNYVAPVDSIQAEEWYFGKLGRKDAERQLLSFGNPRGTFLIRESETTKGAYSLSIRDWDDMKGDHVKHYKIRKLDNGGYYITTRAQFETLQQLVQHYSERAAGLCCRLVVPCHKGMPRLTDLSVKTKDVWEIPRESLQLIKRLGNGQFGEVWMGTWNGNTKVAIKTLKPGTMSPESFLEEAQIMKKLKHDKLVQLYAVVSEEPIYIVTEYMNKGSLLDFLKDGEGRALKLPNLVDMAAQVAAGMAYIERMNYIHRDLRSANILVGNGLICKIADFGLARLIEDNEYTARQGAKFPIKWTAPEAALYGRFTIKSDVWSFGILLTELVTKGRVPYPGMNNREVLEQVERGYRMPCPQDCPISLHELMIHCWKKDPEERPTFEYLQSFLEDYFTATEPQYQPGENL
# Chain of MELK(h) (human) (Q14680 1-340 limits assumed): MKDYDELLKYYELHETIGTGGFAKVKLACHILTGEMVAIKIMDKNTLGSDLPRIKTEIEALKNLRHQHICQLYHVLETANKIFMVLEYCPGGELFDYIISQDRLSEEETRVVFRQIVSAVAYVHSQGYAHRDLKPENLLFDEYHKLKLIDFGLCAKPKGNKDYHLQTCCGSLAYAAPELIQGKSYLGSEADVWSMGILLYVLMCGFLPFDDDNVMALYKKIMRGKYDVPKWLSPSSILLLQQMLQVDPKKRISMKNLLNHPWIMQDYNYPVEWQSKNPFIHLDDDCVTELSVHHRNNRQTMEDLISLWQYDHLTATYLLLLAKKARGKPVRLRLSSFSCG
# Chain of Lck(h) activated (human) (P06239 whole entry): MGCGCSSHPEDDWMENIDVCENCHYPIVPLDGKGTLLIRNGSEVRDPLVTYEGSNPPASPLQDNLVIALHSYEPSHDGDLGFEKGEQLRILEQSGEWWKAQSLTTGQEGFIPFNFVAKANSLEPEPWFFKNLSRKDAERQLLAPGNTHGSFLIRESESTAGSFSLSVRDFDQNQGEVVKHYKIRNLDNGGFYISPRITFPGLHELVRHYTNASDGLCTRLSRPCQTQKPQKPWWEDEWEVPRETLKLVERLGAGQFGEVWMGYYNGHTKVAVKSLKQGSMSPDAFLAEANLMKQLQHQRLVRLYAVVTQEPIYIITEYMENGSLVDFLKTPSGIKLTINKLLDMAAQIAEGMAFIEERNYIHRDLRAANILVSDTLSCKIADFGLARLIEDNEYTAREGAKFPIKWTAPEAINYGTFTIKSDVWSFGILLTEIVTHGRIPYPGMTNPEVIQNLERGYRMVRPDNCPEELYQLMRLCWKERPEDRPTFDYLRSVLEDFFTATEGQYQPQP
# Chain of DAPK2(h) (human) (Q9UIK4 whole entry): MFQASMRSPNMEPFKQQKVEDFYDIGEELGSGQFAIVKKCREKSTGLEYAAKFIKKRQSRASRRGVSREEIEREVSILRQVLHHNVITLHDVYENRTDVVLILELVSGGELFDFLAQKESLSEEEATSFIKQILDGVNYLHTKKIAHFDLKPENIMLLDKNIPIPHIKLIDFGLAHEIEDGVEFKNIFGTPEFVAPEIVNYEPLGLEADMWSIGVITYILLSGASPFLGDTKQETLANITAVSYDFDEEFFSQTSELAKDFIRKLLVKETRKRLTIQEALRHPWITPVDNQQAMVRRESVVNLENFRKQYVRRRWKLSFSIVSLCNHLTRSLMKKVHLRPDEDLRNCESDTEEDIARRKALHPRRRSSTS
# Chain of Lyn(h) (human) (P07948 whole entry): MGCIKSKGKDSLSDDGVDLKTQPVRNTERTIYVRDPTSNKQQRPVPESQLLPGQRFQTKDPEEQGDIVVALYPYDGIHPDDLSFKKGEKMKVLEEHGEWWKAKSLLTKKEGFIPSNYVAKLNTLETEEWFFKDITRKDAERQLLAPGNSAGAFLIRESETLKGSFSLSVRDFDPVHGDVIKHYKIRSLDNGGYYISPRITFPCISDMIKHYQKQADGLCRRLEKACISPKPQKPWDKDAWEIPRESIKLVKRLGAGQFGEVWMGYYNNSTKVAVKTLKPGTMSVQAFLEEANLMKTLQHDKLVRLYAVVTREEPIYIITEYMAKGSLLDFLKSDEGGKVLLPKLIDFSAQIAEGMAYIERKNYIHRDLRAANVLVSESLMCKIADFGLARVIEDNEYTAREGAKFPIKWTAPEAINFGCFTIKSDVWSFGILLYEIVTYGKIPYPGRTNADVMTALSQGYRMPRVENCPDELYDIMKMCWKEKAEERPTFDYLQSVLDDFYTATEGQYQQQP
substance,measurement,setting,value
MMI-0500 (peptide),"% activity, 100 µM",BrSK1(h) (human),72%
same,"% activity, 100 µM",[1],6%
same,"% activity, 100 µM",DAPK2(h) (human),3%
same,"% activity, 100 µM",Flt3(D835Y)(h) (human),65%
same,"% activity, 100 µM",Fyn(h) (human),83%
same,"% activity, 100 µM",HIPK1(h) (human),47%
same,"% activity, 100 µM",Hck(h) (human),78%
same,"% activity, 100 µM",Lck(h) activated (human),76%
same,"% activity, 100 µM",Lyn(h) (human),31%
same,"% activity, 100 µM",MELK(h) (human),0%
same,"% activity, 100 µM",MRCKβ(h) (human),-10%
same,"% activity, 100 µM",PKCµ(h) (human),10%
same,"% activity, 100 µM",PKGδ(h) (human),61%
same,"% activity, 100 µM",SAPK4(h) (human),48%
same,"% activity, 100 µM",WNK2(h) (human),8%
